# Measurements taken from PMC314469, “Protein Interaction Networks by Proteome Peptide Scanning” (PLoS Biology, 2004).
# Assays:
# [1] = target: T1, amphyphisin SH3 (AMPH_HUMAN), P49418; test: SPOT array
# T1 chain: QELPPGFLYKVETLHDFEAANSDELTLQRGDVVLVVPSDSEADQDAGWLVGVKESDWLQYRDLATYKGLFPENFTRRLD
# [2] = target: endophilin SH3 (SH3G2_HUMAN), Q99962; test: SPOT array
Binder,"normalised SPOT signal, Boehringer light units (BLU); mean over the file's lines of this peptide [1]","normalised SPOT signal, Boehringer light units (BLU); mean over the file's lines of this peptide [2]"
YQGGPPRPPMGMRP [O43670 455-469],87.9,614
YRHGISRPLRPLSS [Q9UBX1 412-425],1500,867
YRLPPTRPPASVSP [Q96LR7 16-30],150,1510
SVRGPLRPPVRSPA [Q96H54 9-23],5070,5540
YTSKIFRPPRASHS [Q9Y397 160-173],1790,325
YYLLPERPPYLDKY [Q9UD05 393-407],57.4,108
SVGRPTRPSRGPWR [Q9HBQ8 81-94],9540,5870
DAYSFKRPDRSKMN [P13611 342-355],543,45.4
YQRLPRRPGEPREV [Q9UHC9 721-734],116,143
YYQIIKRPMDLSII [Q9BQQ4 1075-1088],78.4,85.7
YTVPPARPPPPLTK [O43308 48-62],211,9170
YSLLFRRPPPSPSP [Q9NZY4 11-24],204,175
YRQQPKRPQKHIQK [Q9NPG4 759-772],103,183
YRRRFSRPSRARDI [Q03188 13-26],469,85.1
DDEPPARPPPPPPA [Q9NQC3 135-149],37.6,54.3
STPRPARPPSPTEQ [Q96ML3 75-89],324,9450
SRLTLLRPEKDGAA [Q9H7S7 16-29],297,71.4
DADPLKRPTFKQIV [P10721 908-921],39.9,19.8
YQEYLKRPPESPPI [Q9BTL3 26-39],34.1,42.7
SQKAFKRPSDLRQH [Q9P2F9 337-350],61.1,19
DDSVILRPSKSVKL [Q9Y2R2 666-679],119,167

Binder,"normalised SPOT signal, Boehringer light units (BLU); mean over the file's lines of this peptide [1]","normalised SPOT signal, Boehringer light units (BLU); mean over the file's lines of this peptide [2]"
STQGLRRPFGVAVM [Q92608 327-340],8.9,27.2
SRLTLLRPKKDGAA [Q9H7S7 172-185],199,159
ASLPPPRPQRPVTK [Q9NQE0 197-210],9900,5900
DEAQLSRPKKSSDR [O60481 257-270],51.5,76.4
SSGVPGRPPGLEEE [P49810 64-78],50.9,57.8
SRNVLRRPFQAQSG [Q12933 37-50],31.6,112
ASLPPPRPQRPAET [Q9UFB1 199-212],210,81.6
SQPGPAKPPAHRPS [Q9NPM2 248-262],39.8,176
YQHHPKRPSRQIHK [Q9HCL0 744-757],3940,432
DDILINRPAKKHLE [Q9H9F8 116-129],7.5,127
YPNKIKRPSLEDVT [Q13495 6-19],24.9,94.9
SWGGPWRPPPPGFW [Q8TC90 86-100],43.7,1290
SRLTLLRPEKDGTA [Q9H7S7 328-341],242,112
SSKEFNRPDKLKAH [Q9BYN7 579-592],132,120
YPQDLPRPLRSREF [O43734 232-245],154,95.9
YSSSLERPRKLRAV [O75042 916-929],78.3,137
DSSKLRRPLKRNRI [Q9NVG6 7-20],111,167
DAQEIIRPRRSKYF [Q9HCG2 115-128],723,165
YVDVIKRPLVKNPV [Q9P2Q0 703-716],26.4,29.7
DANRLRRPGGSYPA [Q14767 49-62],24.8,59.6
DDLEIVRPARRRTP [Q15598 3286-3299],189,67.6
